One assay concerns the target fibrin monomer (UniProt P02675). Put plainly: ELISA. On the technique in general: In an ELISA, binding on a coated surface is turned into a signal by an enzyme label.
Assay [1] concerns the target recombinant von Willebrand factor (VWF) A2 domain polypeptide, A2_(1481-1668) (human) (UniProt P04275). Put plainly: ELISA.

Usually EC50 stands for the concentration giving half of the maximal effect.

recombinant von Willebrand factor (VWF) A2 domain polypeptide, A2_(1481-1668) (human), sequence (P04275 1481-1668): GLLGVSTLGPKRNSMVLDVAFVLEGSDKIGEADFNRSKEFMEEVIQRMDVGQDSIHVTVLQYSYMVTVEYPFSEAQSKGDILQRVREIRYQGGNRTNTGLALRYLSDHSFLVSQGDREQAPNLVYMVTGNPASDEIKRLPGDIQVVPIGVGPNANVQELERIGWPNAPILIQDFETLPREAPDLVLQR
recombinant von Willebrand factor (VWF) A2 domain polypeptide, A2_(1481-1668), sequence (P04275 1481-1668): as above

Take “recombinant von Willebrand factor (VWF) A2 domain polypeptide, A2_(1481-1668) (from UniProt P04275 1481-1668) (domain or fragment)”: the EC50 with fibrin monomer was 60 nM.

Turning to “fibrin monomer (from UniProt P02675 45-491; P02679 27-453) (complex)”, the EC50 in assay [1] came out at 7 nM.

These data come from PMC5270629.
